The results in this text go back to patent publication US20260193356A1 (BIOCYTOGEN PHARMACEUTICALS BEIJING, published 2026).

By Kd is commonly meant the equilibrium constant for the complex coming apart. One may read the koff as the rate constant with which the complex falls apart. For orientation: kon means a measure of how fast the partners come together.

B1: B20B02-N297A (antibody, human IgG1, V domains shown)
VH: QVQLQQSGGGVVQPGRSLRLSCAASGFTFSTYGMHWVRQAPGKGLEWVAALSFDGGNIYYGDSVKGRFTISRDNSKNTLYLQMNSLRAEDTALYYCAKARLPYSYDAVDYWGQGTLVTVSS
VL: EIVMTQSPATLSVSPGERATLSCRASQSVSSNLAWYQQKPGQAPRLLIYDTSTRAIGIPARFSGSGSGTEFTLTISSLQSEDFAIYYCHQYNFWPPITLGQGTRLEIK
B2: B21A06-N297A (antibody, human IgG1, V domains shown)
VH: QVQLQESGGDVVQPGRSLRLSCAASGFTFNNYGMHWVRQAPSKGLEWVAFIWYDGSNKYYGDSVKGRFTISRDNSKNTLYLQMNSLRAEDTALYYCARGDNWNSDAFDIWGPGTMVTVSS
VL: EIVMTQSPLSLPVTLGQPASISCRSSQSLVYTNGNTYLNWFQQRPGQSPRRLIYKVSSRDSGVPDRFSGSGSGTDFTLKISRVAAEDVGLYYCMQGTHWPLTFGGGTKVEIK
B3: B22E02-N297A (antibody, human IgG1, V domains shown)
VH: QVQLVQSGGGLVQPGRSLRLSCRASGFTFDGYSMNWVRQAPGKGLEWVGFIRSKGYGGTSESAASVKGRFTISRDDSKSIAYLQMNSLKTEDTAVYYCTRTRNWNDEGYFDYWGLGTLVTVSS
VL: DIQMTQSPSSLSASVGDRVTITCQASQDINKYLNWYQQKPGKAPKLLIYDASNSETGVPSRFSGSGSGTDFTFTISSLQPEDISTYYCQQYDILPITFGQGTRLEIK
notes: Human IgG1 with N297A (EU numbering) in the Fc
B4: B20A09-N297A (antibody, V domains shown)
VH: QVQLQQSGPGLVKPSQTLSLTCAISRDGVSNISGAWNWIRQSPSRGLEWLGRTYYRAMWYKDYALSVKSRITINPDTSKNQFSLQLNSVTPEDTAVYYCAREEYSRGWGAFDIWGQGTMVTVSS
VL: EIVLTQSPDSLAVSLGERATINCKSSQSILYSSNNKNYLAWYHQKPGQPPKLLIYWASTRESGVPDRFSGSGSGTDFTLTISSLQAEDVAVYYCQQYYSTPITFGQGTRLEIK

T1 sequence (Q9NZQ7 other isoform, or with tags, fused parts or gaps limits assumed): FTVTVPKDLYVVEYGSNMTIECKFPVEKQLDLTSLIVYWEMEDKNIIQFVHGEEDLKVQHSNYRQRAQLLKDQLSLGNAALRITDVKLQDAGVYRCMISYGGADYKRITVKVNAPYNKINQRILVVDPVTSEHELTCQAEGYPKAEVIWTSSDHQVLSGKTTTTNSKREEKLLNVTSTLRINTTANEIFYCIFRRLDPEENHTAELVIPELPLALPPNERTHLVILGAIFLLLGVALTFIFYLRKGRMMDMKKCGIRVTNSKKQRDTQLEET
T5 sequence (Q9NZQ7 19-238 limits assumed): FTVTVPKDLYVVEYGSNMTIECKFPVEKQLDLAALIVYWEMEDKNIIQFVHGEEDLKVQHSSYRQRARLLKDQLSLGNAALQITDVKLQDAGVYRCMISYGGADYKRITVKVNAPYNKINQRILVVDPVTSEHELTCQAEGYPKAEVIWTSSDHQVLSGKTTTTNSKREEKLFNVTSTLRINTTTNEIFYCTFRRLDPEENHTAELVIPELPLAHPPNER
T3 sequence (Q9EP73 19-290 limits assumed): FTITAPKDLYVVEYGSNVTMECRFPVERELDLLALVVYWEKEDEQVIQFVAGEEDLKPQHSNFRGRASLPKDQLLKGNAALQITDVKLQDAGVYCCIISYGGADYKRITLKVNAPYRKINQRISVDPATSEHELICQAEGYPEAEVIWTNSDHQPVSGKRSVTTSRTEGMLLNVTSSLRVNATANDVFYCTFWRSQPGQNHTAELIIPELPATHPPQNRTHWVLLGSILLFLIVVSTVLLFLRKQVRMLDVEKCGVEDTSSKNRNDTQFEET

One assay deals with T1, monkey (Macaca fascicularis) PDL1 (fasPDL1) expressed on CHO-S cells (CHO-S-fasPDL1) (monkey (Macaca fascicularis), UniProt Q9NZQ7 19-290 (human entry)). Put plainly: flow cytometry on CHO-S-fasPDL1 cells; antibody 1 µg/mL. As for the experimental part:
(§1) Then, after one wash with PBS, the cells were incubated with the secondary antibody anti-hIgG-Fc-Alex Flour 647 (RL1-H) (Jackson ImmunoResearch Laboratories, Inc., 109-606-170) at 4° C. for 15 minutes before flow cytometry analysis.
A general note: A flow cytometer gives signals particle by particle.
Turning to B1, the “Percentage of Positive Cells (%)” value stood at 79.8%.
On to B2, for which the “Percentage of Positive Cells (%)” value turned out to be 70.2%.
On the same count and under the same terms, the figure for B3 is 74.4%; for B4 it is 72%.

The target in another assay is T2, human PDL1 (hPDL1) expressed on CHO-S cells (CHO-S-hPDL1) (human, UniProt Q9NZQ7 19-290). Briefly: flow cytometry on CHO-S-hPDL1 cells; antibody 1 µg/mL. As to the method: as §1
T2 sequence (Q9NZQ7 19-290 limits assumed): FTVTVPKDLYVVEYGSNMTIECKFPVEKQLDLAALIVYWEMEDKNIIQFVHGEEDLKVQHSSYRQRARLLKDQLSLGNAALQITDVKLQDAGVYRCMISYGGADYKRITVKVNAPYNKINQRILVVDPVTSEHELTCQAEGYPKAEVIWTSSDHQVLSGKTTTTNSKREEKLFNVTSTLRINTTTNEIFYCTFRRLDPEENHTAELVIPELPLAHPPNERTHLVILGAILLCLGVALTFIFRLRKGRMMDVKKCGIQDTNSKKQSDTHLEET
Consider B1, for which the “Percentage of Positive Cells (%)” value came to 89.3%.
As to B2, the “Percentage of Positive Cells (%)” value turned out to be 83.2%.
Same read-out and setting: the figure for B3 is 87.1%; for B4 it is 83.1%.

Another assay concerns the target T3, mouse (Mus musculu) PDL1 (mPDL1) expressed on CHO-S cells (CHO-S-mPDL1) (mouse, UniProt Q9EP73 19-290). Put plainly: flow cytometry on CHO-S-mPDL1 cells; antibody 1 µg/mL. As for the experimental part:
as §1
With B1, the “Percentage of Positive Cells (%)” value stood at 87.3%.
Consider B2, for which the “Percentage of Positive Cells (%)” value was 75.2%.
Turning to B3, the “Percentage of Positive Cells (%)” value stood at 77.1%.
Same read-out and setting: to B4 belongs 79%.

The next assay has as its target T2, human PDL1 (hPDL1) expressed on CHO-S …. Put plainly: flow cytometry on CHO-S-hPDL1 cells; antibody 0.1 µg/mL. As to the method: as §1
Turning to B1, the “Percentage of Positive Cells (%)” value amounted to 69%.
The same measure, in the same setting: the figure for B2 is 65.8%.
As to B3, the “Percentage of Positive Cells (%)” value was 72.2%.
For the molecule B4, the “Percentage of Positive Cells (%)” value is 69.9%.

The target of another assay is T3, mouse (Mus musculu) PDL1 (mPDL1) …. Briefly: flow cytometry on CHO-S-mPDL1 cells; antibody 0.1 µg/mL. As for the experimental part:
as §1
Consider B1, for which the “Percentage of Positive Cells (%)” value was 70.6%.
On the same count and under the same terms, the figure for B2 is 65.2%; for B3 it is 66.1%.
Still for that read-out and setting: to B4 belongs 67.8%.

The target in another assay is T4, His-tagged Macaca fascicularis PDL1 protein (fasPDL1-his, ACROBiosystems Inc., Cat #: PD1-C52H4) (Macaca fascicularis, UniProt Q9NZQ7 19-238 (human entry)).
T4 construct: Bought protein; also called monkey PDL1; not shown: His tag
T4 sequence (Q9NZQ7 other isoform, or with tags, fused parts or gaps limits assumed): as the sequence (Q9NZQ7 19-238 limits assumed) above, with A33T, A34S, S62N, R68Q, Q82R, F173L, T185A, T192I, H215L counted along it
Briefly: SPR Biacore 8K, antibody captured on Protein A chip, His-tagged antigen as analyte, 1:1 model. As for the experimental part: (§2) Dissociation was monitored for 400 seconds. The chip was regenerated after the last injection of each titration with Glycine (pH 2.0, 30 μL/min for 30 seconds).
A general note: Surface plasmon resonance follows binding to a sensor surface in real time, without labels.
Molecule B1 returned a dissociation constant Kd of 0.672 nM, a koff of 0.000146 s⁻¹ and a kon of 217000 M⁻¹ s⁻¹.
As for B2, binding was put at a Kd of 5.77 nM, the dissociation rate constant (koff) was 0.00156 s⁻¹ and the kon was determined as 271000 M⁻¹ s⁻¹.
For B3, the dissociation constant Kd is 0.765 nM, the koff was determined as 0.000331 s⁻¹ and the kon came out at 432000 M⁻¹ s⁻¹.
B4: the Kd amounted to 2.95 nM, the koff was 0.000612 s⁻¹ and the on-rate (kon) was 207000 M⁻¹ s⁻¹.

The next assay concerns the target T5, His-tagged human PDL1 protein (hPDL1-his, ACROBiosystems Inc., Cat #: PD1-H5229) (human, UniProt Q9NZQ7 19-238).
T5 construct: Bought protein; not shown: His tag
The assay is described as above. As to the method: as §2
B1 registered a Kd of 1.16 nM, a koff of 0.000184 s⁻¹ and an on-rate (kon) of 159000 M⁻¹ s⁻¹.
As for B2, the dissociation constant (Kd) is 8.65 nM, the koff was found to be 0.00167 s⁻¹ and the kon was 193000 M⁻¹ s⁻¹.
In the case of B3, the Kd came out at 1.29 nM, the koff was determined as 0.000411 s⁻¹ and the kon amounted to 318000 M⁻¹ s⁻¹.
Regarding B4, binding was characterised by a dissociation constant (Kd) of 4.6 nM, the koff is 0.000721 s⁻¹ and the kon came to 157000 M⁻¹ s⁻¹.

The target of a further assay is T6, His-tagged mouse PDL1 protein (mPDL1-his, ACROBiosystems Inc., Cat #: PD1-M5220) (mouse, UniProt Q9EP73 19-238).
T6 construct: Bought protein; not shown: His tag
T6 sequence (Q9EP73 19-238 limits assumed): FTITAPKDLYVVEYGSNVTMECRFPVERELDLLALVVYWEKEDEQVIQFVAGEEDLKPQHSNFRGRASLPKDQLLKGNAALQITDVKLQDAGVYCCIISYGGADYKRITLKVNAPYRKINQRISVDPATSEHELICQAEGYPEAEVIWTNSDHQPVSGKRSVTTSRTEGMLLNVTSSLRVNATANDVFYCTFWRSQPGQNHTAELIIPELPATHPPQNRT
The description is as above. As to the method: as §2
B1: the affinity, expressed as Kd, was 1.28 nM; the koff was 0.000168 s⁻¹; the on-rate (kon) was determined as 131000 M⁻¹ s⁻¹.
The corresponding values for B2 are 8.04 nM, 0.00187 s⁻¹ and 232000 M⁻¹ s⁻¹.
The corresponding values for B3 are 17.6 nM, 0.00152 s⁻¹ and 86200 M⁻¹ s⁻¹.
Regarding B4, binding was put at a Kd of 41.5 nM, the koff stood at 0.00955 s⁻¹ and the on-rate (kon) was 230000 M⁻¹ s⁻¹.

A further assay concerns the target T7, His-tagged human B7-H2 protein (hB7-H2-his, ACROBiosystems Inc., Cat #: B72-H5221) (human, UniProt O75144 19-258).
T7 construct: Bought protein; not shown: His tag
T7 sequence (looked up): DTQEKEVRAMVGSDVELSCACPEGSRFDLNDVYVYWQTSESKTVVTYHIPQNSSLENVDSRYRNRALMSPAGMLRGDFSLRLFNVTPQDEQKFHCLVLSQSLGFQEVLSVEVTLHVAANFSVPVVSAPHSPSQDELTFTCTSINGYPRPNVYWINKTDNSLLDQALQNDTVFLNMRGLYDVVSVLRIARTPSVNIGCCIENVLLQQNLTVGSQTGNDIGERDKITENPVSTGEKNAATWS
Briefly: SPR Biacore 8K, antibody captured on Protein A chip, His-tagged antigen as analyte. As to the method:
(§3) The His-tagged antigen protein at a concentration of 200 nM was then injected at 30 μL/min for 180 seconds. Dissociation was monitored for 400 seconds. The chip was regenerated after the last injection of each titration with Glycine (pH 2.0, 30 μL/min for 30 seconds).
In the case of B1, the binding result is “no binding (tested: 200 nM)”.
The same measure, in the same setting: the entry for B2 is “no binding (tested: 200 nM)”; for B3 it is “no binding (tested: 200 nM)”; for B4 it is “no binding (tested: 200 nM)”.

The next assay concerns the target T8, His-tagged human PDL2 protein (hPDL2-his, ACROBiosystems Inc., Cat #: PD2-H5220) (human, UniProt Q9BQ51 20-219).
T8 construct: Bought protein; not shown: His tag
T8 sequence (looked up): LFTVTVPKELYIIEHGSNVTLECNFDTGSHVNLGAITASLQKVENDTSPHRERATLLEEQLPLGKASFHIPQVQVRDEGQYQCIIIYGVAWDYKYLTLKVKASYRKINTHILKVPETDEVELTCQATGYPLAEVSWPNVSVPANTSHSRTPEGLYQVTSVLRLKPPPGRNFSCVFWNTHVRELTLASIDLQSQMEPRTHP
The assay is described as above. As for the experimental part: as §3
As to B1, the binding result is “no binding (tested: 200 nM)”.
As to B2, the binding result is on record as “no binding (tested: 200 nM)”.
Same read-out and setting: the entry for B3 is “no binding (tested: 200 nM)”.
The same measure, in the same setting: to B4 belongs “no binding (tested: 200 nM)”.

For a further assay, the target named is T9, His-tagged human B7-H3 protein (hB7-H3-his, ACROBiosystems Inc., Cat #: B73-H52E2) (human, UniProt Q5ZPR3-2 29-245).
T9 construct: Bought protein; not shown: His tag
T9 sequence (looked up): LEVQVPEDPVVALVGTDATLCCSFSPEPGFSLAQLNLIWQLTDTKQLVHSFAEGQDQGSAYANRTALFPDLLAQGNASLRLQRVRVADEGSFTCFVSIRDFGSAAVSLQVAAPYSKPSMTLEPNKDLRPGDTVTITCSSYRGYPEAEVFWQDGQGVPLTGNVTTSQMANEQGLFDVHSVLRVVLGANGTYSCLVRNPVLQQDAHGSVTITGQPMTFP
Described as above. As to the method: as §3
Take B1: the binding result is “no binding (tested: 200 nM)”.
As to B2, the binding result is on record as “no binding (tested: 200 nM)”.
Take B3: the binding result was “no binding (tested: 200 nM)”.
For the molecule B4, the binding result is “no binding (tested: 200 nM)”.

For the next assay, the target named is T10, His-tagged human B7-1 protein (hB7-1-his, Kactus, Cat #: B71-HM480) (human, UniProt P33681 35-242).
T10 construct: Bought protein; not shown: His tag
T10 sequence (looked up): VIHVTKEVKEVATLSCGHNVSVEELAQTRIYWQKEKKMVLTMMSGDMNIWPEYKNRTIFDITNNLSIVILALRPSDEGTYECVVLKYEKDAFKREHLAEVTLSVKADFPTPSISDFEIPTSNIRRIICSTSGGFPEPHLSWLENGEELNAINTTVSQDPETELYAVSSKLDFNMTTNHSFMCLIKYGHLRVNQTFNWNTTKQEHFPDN
The assay is described as above. As to the method:
as §3
For B1, the binding result was “no binding (tested: 200 nM)”.
Regarding B2, the binding result was “no binding (tested: 200 nM)”.
On the same count and under the same terms, the entry for B3 is “no binding (tested: 200 nM)”; for B4 it is “no binding (tested: 200 nM)”.

The next assay has as its target T1, monkey (Macaca fascicularis) PDL1 …. Put plainly: flow cytometry on CHO-S-fasPDL1 cells; antibody 0.1 µg/mL. As for the experimental part: as §1
B1: the “Percentage of Positive Cells (%)” value is 65.9%.
Same read-out and setting: to B2 belongs 65%.
Still for that read-out and setting: to B3 belongs 66.9%; to B4, 64.2%.

In another assay the target is human PDL1 on helper cells CHO-aAPC-hPDL1 (Promega, Cat #: J1081) (human, UniProt Q9NZQ7 19-290). Briefly: cell-based or functional assay.
Sequence of human PDL1 on helper cells CHO-aAPC-hPDL1 (Promega, Cat #: J1081) (Q9NZQ7 19-290 limits assumed): as the sequence (Q9NZQ7 19-290 limits assumed) above
In the case of B1, the “IC50 (µg/mL), Blockade of the binding of PDL1 and PD-1 (luciferase, CHO-aAPC-hPDL1 + Jurkat-Luc-hPD1 cells)” value was found to be 1.13 µg/mL.
On the same count and under the same terms, the figure for B2 is 1.14 µg/mL; for B3 it is 0.745 µg/mL.
On the same count and under the same terms, the figure for B4 is 0.789 µg/mL.
